Reference: the supplement of paper PMC7125110
± gives the standard error. Variants at the floor of the assay were thinned out.

B1: glmS ribozyme (parent)
chain: AUAAAAGCGCCAGAACUACAGAAAUGUAGUUGACGAGGAGGAGGUUUAUCGAAUUUUCGGCGGAUGCCUCCAAA

Assays:
Settings in all cases: with glucosamine-6-phosphate
glucosamine-6-phosphate [1] = variants of: B1; experiment: self-cleavage kobs at 40 uM GlcN6P; higher = faster cleavage; RNA array
Outline: (§1)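 Barcoded ribozyme variants on sequenced MiSeq chips were transcribed in situ by E. coli RNA polymerase and followed at 37 °C through a hybridised Cy3 probe. Glucosamine-6-phosphate at 40 μM to 10 mM in HEPES/KCl/Mg(OAc)2 buffer was flowed in, and tiles were imaged over ~14 h. Signals were normalised to baseline and to non-cleaving reference variants, and per-tile medians were fit to one- or two-exponential decays to give kobs. Weighted Michaelis–Menten fits across concentrations gave kcat and KM.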

glucosamine-6-phosphate [2] = variants of: B1; experiment: self-cleavage kobs at 2500 uM GlcN6P; higher = faster cleavage; RNA array
Outline: as §1

glucosamine-6-phosphate [3] = variants of: B1; experiment: self-cleavage kobs at 10000 uM GlcN6P; higher = faster cleavage; RNA array
Outline: as §1

glucosamine-6-phosphate [4] = variants of: B1; experiment: self-cleavage kobs at 160 uM GlcN6P; higher = faster cleavage; RNA array
Outline: as §1

glucosamine-6-phosphate [5] = variants of: B1; experiment: self-cleavage kobs at 640 uM GlcN6P; higher = faster cleavage; RNA array
Outline: as §1

Variant	self-cleavage kobs at 40 uM GlcN6P (glucosamine-6-phosphate [1]) [s⁻¹]	self-cleavage kobs at 2500 uM GlcN6P (glucosamine-6-phosphate [2]) [s⁻¹]	self-cleavage kobs at 10000 uM GlcN6P (glucosamine-6-phosphate [3]) [s⁻¹]	self-cleavage kobs at 160 uM GlcN6P (glucosamine-6-phosphate [4]) [s⁻¹]	self-cleavage kobs at 640 uM GlcN6P (glucosamine-6-phosphate [5]) [s⁻¹]
C16U C50U	< 1e-05	5.3e-05 ± 1.3e-05	0.000106 ± 2e-05		
G29C C68A	< 1e-05				
G9A A36C U49C	< 1e-05	< 1e-05	< 1e-05		
U47G U69A	5.4e-05 ± 1.7e-05	0.000193 ± 3.4e-05	8.6e-05 ± 1.4e-05	7.68e-05 ± 1.4e-05	7.46e-05 ± 1.4e-05
G62A C67A	< 1e-05		< 1e-05		
A6C G44U G51A	< 1e-05		< 1e-05		
G7A C11U U30A	< 1e-05				
C8G C50U	< 1e-05	< 1e-05	< 1e-05	< 1e-05	< 1e-05
U2C	0.000889 ± 0.00014	0.00926 ± 0.003	0.0584 ± 0.014		0.0102 ± 0.0023
A39C G40C U47C	< 1e-05				
U45C A53G C67G C68A	3.17e-05 ± 1.3e-05		8.22e-05 ± 1.3e-05		
C16U C34A	< 1e-05				
A15U A42G G62U	< 1e-05	< 1e-05	< 1e-05		
U31C U57G	< 1e-05				
A36G G60A	< 1e-05			< 1e-05	< 1e-05
G35U A42G	< 1e-05	< 1e-05	< 1e-05	< 1e-05	< 1e-05
A42C G44C	< 1e-05		< 1e-05	< 1e-05	< 1e-05
A33C G40C	< 1e-05			< 1e-05	< 1e-05
A36G G59U	< 1e-05	< 1e-05	< 1e-05	< 1e-05	< 1e-05
G29U U46G C58G C67A	4.15e-05 ± 1.9e-05		5.63e-05 ± 1.4e-05		
C11G A39G U46G C61U U65C C68A	< 1e-05		< 1e-05		
U31A C61U	< 1e-05			< 1e-05	< 1e-05
G29U C34U A42C	< 1e-05	< 1e-05	< 1e-05	< 1e-05	< 1e-05

Variant	self-cleavage kobs at 40 uM GlcN6P (glucosamine-6-phosphate [1]) [s⁻¹]	self-cleavage kobs at 2500 uM GlcN6P (glucosamine-6-phosphate [2]) [s⁻¹]	self-cleavage kobs at 10000 uM GlcN6P (glucosamine-6-phosphate [3]) [s⁻¹]	self-cleavage kobs at 160 uM GlcN6P (glucosamine-6-phosphate [4]) [s⁻¹]	self-cleavage kobs at 640 uM GlcN6P (glucosamine-6-phosphate [5]) [s⁻¹]
G9A G37A	< 1e-05	< 1e-05	< 1e-05	< 1e-05	< 1e-05
A33G C61G	< 1e-05		< 1e-05	< 1e-05	< 1e-05
G29U C50G A53G U55G C67G	0.000349 ± 0.00015				
G41C U69A	< 1e-05			< 1e-05	< 1e-05
G32C G40A A53C	< 1e-05	< 1e-05	< 1e-05		
A14G A15G A33G G40U	< 1e-05		< 1e-05		< 1e-05
G32C G44C	< 1e-05	< 1e-05	< 1e-05	< 1e-05	
A53U C71U	0.000617 ± 6e-05	0.0165 ± 0.0031	0.0301 ± 0.0058	0.00115 ± 0.0002	0.00728 ± 0.0012
A6C G63C	< 1e-05		< 1e-05		< 1e-05
G40C U57A	< 1e-05			< 1e-05	
C50G G66U	0.000495 ± 0.00015	0.000123 ± 5.1e-05			
A12C G29U	0.000186 ± 2.6e-05	0.00483 ± 0.0017	0.031 ± 0.014	0.000725 ± 0.00022	0.00225 ± 0.00065
U54A C61U C71G	< 1e-05				
G7C U49G	< 1e-05			< 1e-05	
G44C A48U	< 1e-05	< 1e-05	< 1e-05	< 1e-05	< 1e-05
U45A C67A	0.000364 ± 5.5e-05	0.00568 ± 0.0022	0.00719 ± 0.0014		
U49A G62U	< 1e-05		< 1e-05		
C34G G40A U55G	< 1e-05				
A6G G32C C34G C71U	< 1e-05			< 1e-05	< 1e-05
C8A A48C	< 1e-05	< 1e-05	< 1e-05	< 1e-05	< 1e-05
C11A G35A U55A G60U U65A C68G	0.00461 ± 0.0018		5.33e-05 ± 1.7e-05		
A14G C16U G41U	0.000207 ± 7.3e-05		0.00243 ± 0.00096		
